For some assays here: Fewer inactive variants are shown than the library holds.
B1: TPR 5TU (parent)
chain: GGAUCUUCUCGAUCUAACAAAAAAGACAAAUCUGCCACAAAGCUUGAGAGCAUCUUCGGAUGCAGAGGCGGCAGCCUUCGGUGGCGCGAUAGCGCCAACGUUCUCAACUAUGACACGCAAAACGCGUGCUCCGUUGAAUGGAGUUUAUCAUG
B2: TPR t1 (parent)
chain: GACCAAUCUGCCCUCAGAGCUCGAGAACAUCUUCGGAUGCAGAGGAGGCAGGCUUCGGUGGCGCGAUAGCGCCAACGUCCUCAACCUCCAAUGCAUCCCACCACAUGAUGAUGCCUGAAGAGCCUUGGUUUUUUG

Variants of: B1
Test: polymerase ribozyme fitness, log enrichment relative to wild type (log ratio); higher = more active; in vitro selection for triplet polymerase activity
Method in brief: (§1)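 Only genotypes with ≥10 input reads and ≥1 read per output were kept after Illumina sequencing of input and output libraries. These libraries were PCR-built, transcribed mutants of each subunit of a heterodimeric triplet polymerase ribozyme, each put through one triplicate in vitro selection round with frozen incubation at −7 °C, gel excision of extended constructs, streptavidin-bead capture and RT-PCR. Fitness is a logarithmic ratio of genotype enrichment to wild-type enrichment, from inverse-variance-weighted replicate averages, with the logarithm in base 2.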

Variant	polymerase ribozyme fitness (log ratio)
A3C C18G A30G C116G	≤ -4.2
A3C A23U G50C U55A C105U C116U C125U	≤ -4.2
A3C U33C U44A U56G C85G	≤ -4.2
A3C G11U C36G A39U A91U C114U U127G U134G G140C	≤ -4.2
A3C A19U C57G G94A G141A	-2.02
A3C C93G	≤ -4.2
A3C G11C C76U C93A	-3.68
A3C U6G A60G G83C	-3.62
A3C U9A A73U U144A C149G	≤ -4.2
A3C C5G C14G A24G A29U C32A U56G G86C U90G C116G A142C	≤ -4.2
A3C C5A A20U C57A G62C U78G	≤ -4.2
A3C U13C C51U C57U C87U C96G U139C	≤ -4.2
A3C U9G U33G A49U G74U U77G C93G U104A	≤ -4.2
A3C G34C C43U A91G	≤ -4.2
A3C A37G A91C A138C G140U	≤ -4.2
A3C A29U A91U	≤ -4.2
A3C C8U C27U G68A C87U A91C C93G	≤ -4.2
A3C C85A	-2.55

Variant	polymerase ribozyme fitness (log ratio)
A3C C5A G11A U45A U55A G80A C96A	≤ -4.2
A3C	-0.142
A3C U31G C57G	-1.39
A3C A16U A26U U55A	≤ -4.2
A3C U15A C85U	0.611
A3C U45A G59U G92U	≤ -4.2
A3C A29C A37U C57U C87U A142G U148C	≤ -4.2
A3C U13C A28G C79G G80C G94A G141C	-4.17
A3C U31G U53A U55A C96A A115G G126A A142C	≤ -4.2
A3C A37U A40C U44A C132A	≤ -4.2
A3C A20G C85A	-2.54
A3C C14G C103G A119G	≤ -4.2
A3C C10A U82C	-2.75
A3C G83A G136C	-3.35
A3C A22U G86A G92U	-2.91
A3C A19G A21U U45A U82C G92C U139G U144A	≤ -4.2
A3C C5G G92U U134C U135A	-1.39

Variants of: B2
Test: as above
Method in brief: as §1

Variant	polymerase ribozyme fitness (log ratio)
C124U U129A	-0.35
G120U U133A	0.165
G122A U129C	-0.808
A121G U129C	0.0991
G120C G127U	2.11
C123U U134C	1.29
G120C G122A	-0.824
G120U U130A	-0.3
G120U U130G	-0.763
U129C U133G	0.0769
A119C C123G	-1.25
C123U G128C	-0.354
G128C U133A	-2.85
G120C U130G	0.395
G127C U130C	0.0399
C124G U131A	2.2
C124G U131G	1.33
G120U G122U	0.765
U129A U132C	-0.64
A121C G128U	0.545
A121G U131A	2.42
A121G U131G	1.36

Variant	polymerase ribozyme fitness (log ratio)
U125C	-1.8
U125A	-0.431
U125G	-1.01
U129C U132A	-0.43
G120A G122A G128C	-2.03
C123U U126A G135U	0.771
G122A U126A	-2.34
A119U C124A	1.28
G120C G127A U134C	-2.55
C123U U132A	2.23
U126A G128C	-2.86
U129C U131G	0.298
U129C U131A	-0.49
C124A G128A	-0.565
G120A U125A U126A G128A	0.067
U129G U133A	-2
A119U G135U	-1.1
A121U G135U	1.28
A121C U131G	1.12
G120A G128U	-0.62
U132A	-0.0436
U132C	-0.134

Variant	polymerase ribozyme fitness (log ratio)
U132G	-2.28
G120A G127A U129C	-1.04
G127C G128A	-1.79
U129A U130C	-0.653
C123U U125G	1.08
A121G U132A	1.94
G120C C123G	0.469
G120C C123A	0.937
U129C U134G	1.11
U126G U130G	-3.64
G135A	-0.639
G135U	-0.939
G135C	0.446
U126G G127A	-2.54
A121C	1.74
A121G	1.88
A121U	2.12
G120A U126C	-0.356
G128A	-1.65
G128U	-1.57
G128C	-2.23
G120A G127U	0.172

Variant	polymerase ribozyme fitness (log ratio)
G120A G127A	-0.68
C123U G135U	-0.4
C123U G135C	1.48
A119G U131A	0.889
A119U G128C	-2.46
G127A	-1.25
G127U	-0.639
G127C	-1.03
C124U U133G	0.97
U129C U130A	-0.859
U125A G127C	-1.91
G120U U129C	-0.774
U132G U133A	0.0135
C123A U132A	1.54
G120A U132A	1.97
A121U C123A C124G	2.17
A121U U129G	1.22
G122A U130G	-1.01
G122A U130C	-0.597
G120C G128U	-0.74
G127U U129A U130C	-1.27
G120A U129A	-0.0881

Variant	polymerase ribozyme fitness (log ratio)
G120A A121C	-0.98
U125A U131G	0.203
U125A U131C	-0.281
G122U C124G	-0.864
G122U C124A	1.69
G122U C124U	0.953
C124G	1.59
C124A	1.78
C124U	1.54
U131G U133A	-0.289
C123G G128C	-0.446
G122A G128U G135U	-2.49
C123U	1.07
C123G	1.8
C123A	0.556
A119G	1.12
A119U	-0.349
G122A C124G	1.86
A121U C124A	2.1
C124G U132A	2.04
U125A U126G	-1.8
C124A U131G	1.63

Variant	polymerase ribozyme fitness (log ratio)
C124A U133G	-0.27
C123A U125C U129G	-1.5
G128A U133A	-3.85
G120A G122C	-0.571
A119C C124A	-2.4
A119C C124G	-2.41
G120A C123G	1.22
U126G U129A	-2.97
G120A C124U	1.89
G120A U125A	1.26
U134C	-0.304
U134A	0.465
U134G	0.625
C123A U125C	0.193
C124U G135U	-0.0615
G120C G135C	1.48
A121C U130A	0.644
A119G U132A	1.24
G120U G135U	-1.2
G120A G135U	0.435
A119U G120U	-0.548
A119U G120C	1.55
